Laboratory results from patent US20230026666A1 (CATHOLIC UNIVERSITY OF AMERICA, published 2023).

Legend:
[1] = molecular target: T1, CD4 receptor on cells (human, UniProt P01730 26-458); assay: cell binding assay, protein coated, A3.01, A2.01 and Tzmbl cells added, CellTiterGlo detection
T1 construct: whole, on cells; also called CD4 receptor on T cells; CD4+ T cells (A3.01, A3R5, J-Lat 10.6, human PBMC)

[2] = molecular target: T2, soluble human CD4 receptor with full-length extracellular domain (amino acids 1-370) (human, UniProt P01730 26-396); assay: ELISA, 0.1 ug protein coated per well, soluble CD4 added, detected with anti-CD4 antibody Sim.2
T2 construct: extracellular domain; also called soluble CD4; recombinant soluble CD4 (NIH AIDS Reagent program, 4615)

B1: Hoc (highly antigenic outer capsid protein), N-terminal hexa-histidine tag (other)
chain: HHHHHHMTFTVDITPKTPTGVIDETKQFTATPSGQTGGGTITYAWSVDNVPQDGAEATFSYVLKGPAGQKTIKVVATNTLSEGGPETAEATTTITVKNKTQTTTLAVTPASPAAGVIGTPVQFTAALASQPDGASATYQWYVDDSQVGGETNSTFSYTPTTSGVKRIKCVAQVTATDYDALSVTSNEVSLTVNKKTMNPQVTLTPPSINVQQDASATFTANVTGAPEEAQITYSWKKDSSPVEGSTNVYTVDTSSVGSQTIEVTATVTAADYNPVTVTKTGNVTVTAKVAPEPEGELPYVHPLPHRSSAYIWCGWWVMDEIQKMTEEGKDWKTDDPDSKYYLHRYTLQKMMKDYPEVDVQESRNGYIIHKTALETGIIYTYP
notes: Negative control
Does B1 bind [1]?
Result: no binding (tested: 15 pmoles per well)

Does B1 bind [2]?
Result: no binding
